Legend:
[1] = target: anti-NIP hIgG1-YTE/KF (M252Y/S254T/T256E/H433K/N434F) (human | mouse); test: MST; 20 nM NT-647-labelled hIgG1 variant constant, hFcRn titrated (60,000–0.3 nM); 100 mM phosphate buffer, 150 mM NaCl, 0.01% Tween 20, pH 5.5; 25 °C; Monolith NT.115
[2] = target: anti-NIP hIgG1-YTE (M252Y/S254T/T256E) (human | mouse); test: as above
[3] = target: WT anti-NIP hIgG1 (chimeric hIgG1 with mouse lambda light chain, hIgG1 constant HC and a VH specific for NIP) (human | mouse); test: as above
[4] = target: anti-NIP hIgG1-KF (H433K/N434F) (human | mouse); test: as above
[5] = target: anti-NIP hIgG1-YTE (M252Y/S254T/T256E) (human | mouse); test: MST; 20 nM NT-647-labelled hIgG1 variant constant, hFcRn titrated (60,000–0.3 nM); PBS, 0.01% Tween 20, pH 7.4; 25 °C; Monolith NT.115
[6] = target: WT anti-NIP hIgG1 (chimeric hIgG1 with mouse lambda light chain, hIgG1 constant HC and a VH specific for NIP) (human | mouse); test: as above
[7] = target: anti-NIP hIgG1-LS (M428L/N434S) (human | mouse); test: as above
[8] = target: anti-NIP hIgG1-KF (H433K/N434F) (human | mouse); test: as above
[9] = target: hFcRn coupled to the affinity column (analytical hFcRn affinity chromatography) (UniProt P55899); test: analytical hFcRn affinity chromatography; hFcRn coupled to the column; 50 µl hIgG1 variant (1 mg/ml) injected, eluted by a linear pH gradient from pH 6.0 to 8.8 within 110 min (20 mM MES, 140 mM NaCl / 20 mM Tris/HCl, 140 NaCl)
[10] = target: Truncated monomeric His-tagged hFcRn (three extracellular domains of the hFcRn HC with human β2-microglobulin) (human) (UniProt P55899)

For “Truncated monomeric His-tagged hFcRn (three extracellular domains of the hFcRn HC with human β2-microglobulin) (from UniProt P55899 24-297; P61769 21-119) (receptor)”, the Kd [1] was 9.3 nM, the Kd [2] was 166 nM and the Kd [3] was 964 nM. The Kd [4] was 53.4 nM, the Kd [5] was over 20000 nM and the Kd [6] was over 60000 nM. It also gave a Kd [7] of 7000 nM and a Kd [8] of 3300 nM.
For “WT anti-NIP hIgG1 (chimeric hIgG1 with mouse lambda light chain, hIgG1 constant HC and a VH specific for NIP) (antibody)”, the pH of the elution peak from the hFcRn column [9] was 7 pH.
“anti-NIP hIgG1-YTE/KF (M252Y/S254T/T256E/H433K/N434F) (antibody)” was tested, and the reduction of recycling of WT anti-hexon hIgG1 (500 nM) by HMEC1-hFcRn cells (HERA, pH 7.4) with 2 µM YTE/KF; the pair blocked is WT hIgG1 and hFcRn [10] was 50%.

Reference: publication PMC5809500
